These results are taken from patent publication US20200115434A1 (EUREKA THERAPEUTICS, published 2020).

Assay [1] deals with T1, PE-labeled AFP158/HLA-A*02:01 tetramer (human, biotinylated via the BSP peptide linked to the C-terminal end of the extracellular domain).
T1 construct: also called AFP158 tetramer; AFP158/HLA-A*02:01 tetramers; not shown: BSP peptide (BirA biotinylation site) at the C-terminus
The assay is described as follows: flow cytometry, PE-labelled tetramer on transduced Jurkat cells.

Assay [2] concerns the target T1, PE-labeled AFP158/HLA-A*02:01 tetramer. As to the kind of experiment: flow cytometry, PE-labelled tetramer on transduced J.RT3-T3.5 cells.

B1: anti-AFP158/HLA-A*02:01-abTCR-5 (other)
chain 1: QSVLTQPASVSGSPGQSITISCTGTSSDVGGYNYVSWYQQHPGKAPKLMIYDVNNRPSEVSNRFSGSKSGNTASLTISGLQAEDEADYYCSSYTTGSRAVFGGGTKLTVLGQPKANPTVTLFPPSSEELQANKATLVCLISDFYPGAVTVAWKADGSPVKAGVETTKPSKQSNNKYAASSYLSLTPEQWKSHRSYSCQVTHEGSTVEKTVAPTECSDHVKPKETENTKQPSKSCHKPKAIVHTEKVNMMSLTVLGLRMLFAKTVAVNFLLTAKLFFLYPYDVPDYA
chain 2: EVQLVQSGAEVKKPGESLTISCKASGYSFPNYWITWVRQMSGGGLEWMGRIDPGDSYTTYNPSFQGHVTISIDKSTNTAYLHWNSLKASDTAMYYCARYYVSLVDIWGQGTLVTVSSASTKGPSVFPLAPSSKSTSGGTAALGCLVKDYFPEPVTVSWNSGALTSGVHTFPAVLQSSGLYSLSSVVTVPSSSLGTQTYICNVNHKPSNTKVDKRVEPKSCMDPKDNCSKDANDTLLLQLTNTSAYYMYLLLLLKSVVYFAIITCCLLRRTAFCCNGEKSDYKDHDGDYKDHDIDYKDDDDK
notes: the junction between chain and tag is not described
As for B1, the binding result in assay [1] was “binds”.

B2: anti-AFP158/HLA-A*02:01-abTCR-3 (other)
chain 1: EVQLVQSGAEVKKPGESLTISCKASGYSFPNYWITWVRQMSGGGLEWMGRIDPGDSYTTYNPSFQGHVTISIDKSTNTAYLHWNSLKASDTAMYYCARYYVSLVDIWGQGTLVTVSSASTKGPSVFPLAPSSKSTSGGTAALGCLVKDYFPEPVTVSWNSGALTSGVHTFPAVLQSSGLYSLSSVVTVPSSSLGTQTYICNVNHKPSNTKVDKRVEPKSCESSCDVKLVEKSFETDTNLNFQNLSVIGFRILLLKVAGFNLLMTLRLWSSDYKDHDGDYKDHDIDYKDDDDK
chain 2: QSVLTQPASVSGSPGQSITISCTGTSSDVGGYNYVSWYQQHPGKAPKLMIYDVNNRPSEVSNRFSGSKSGNTASLTISGLQAEDEADYYCSSYTTGSRAVFGGGTKLTVLGQPKANPTVTLFPPSSEELQANKATLVCLISDFYPGAVTVAWKADGSPVKAGVETTKPSKQSNNKYAASSYLSLTPEQWKSHRSYSCQVTHEGSTVEKTVAPTECSADCGFTSVSYQQGVLSATILYEILLGKATLYAVLVSALVLMAMVKRKDFYPYDVPDYA
notes: as for B1
In the case of B2, in assay [2], the binding result is listed as “binds”.

B3: anti-AFP158/HLA-A*02:01-abTCR-6 (other)
chain 1: EVQLVQSGAEVKKPGESLTISCKASGYSFPNYWITWVRQMSGGGLEWMGRIDPGDSYTTYNPSFQGHVTISIDKSTNTAYLHWNSLKASDTAMYYCARYYVSLVDIWGQGTLVTVSSASTKGPSVFPLAPSSKSTSGGTAALGCLVKDYFPEPVTVSWNSGALTSGVHTFPAVLQSSGLYSLSSVVTVPSSSLGTQTYICNVNHKPSNTKVDKRVEPKSCDHVKPKETENTKQPSKSCHKPKAIVHTEKVNMMSLTVLGLRMLFAKTVAVNFLLTAKLFFLYPYDVPDYA
chain 2: QSVLTQPASVSGSPGQSITISCTGTSSDVGGYNYVSWYQQHPGKAPKLMIYDVNNRPSEVSNRFSGSKSGNTASLTISGLQAEDEADYYCSSYTTGSRAVFGGGTKLTVLGQPKANPTVTLFPPSSEELQANKATLVCLISDFYPGAVTVAWKADGSPVKAGVETTKPSKQSNNKYAASSYLSLTPEQWKSHRSYSCQVTHEGSTVEKTVAPTECSMDPKDNCSKDANDTLLLQLTNTSAYYMYLLLLLKSVVYFAIITCCLLRRTAFCCNGEKSDYKDHDGDYKDHDIDYKDDDDK
notes: as for B1
On to B3, for which, in assay [1], the binding result was “binds”.

B4: anti-AFP158/HLA-A*02:01-abTCR-4 (other)
chain 1: QSVLTQPASVSGSPGQSITISCTGTSSDVGGYNYVSWYQQHPGKAPKLMIYDVNNRPSEVSNRFSGSKSGNTASLTISGLQAEDEADYYCSSYTTGSRAVFGGGTKLTVLGQPKANPTVTLFPPSSEELQANKATLVCLISDFYPGAVTVAWKADGSPVKAGVETTKPSKQSNNKYAASSYLSLTPEQWKSHRSYSCQVTHEGSTVEKTVAPTECSESSCDVKLVEKSFETDTNLNFQNLSVIGFRILLLKVAGFNLLMTLRLWSSDYKDHDGDYKDHDIDYKDDDDK
chain 2: EVQLVQSGAEVKKPGESLTISCKASGYSFPNYWITWVRQMSGGGLEWMGRIDPGDSYTTYNPSFQGHVTISIDKSTNTAYLHWNSLKASDTAMYYCARYYVSLVDIWGQGTLVTVSSASTKGPSVFPLAPSSKSTSGGTAALGCLVKDYFPEPVTVSWNSGALTSGVHTFPAVLQSSGLYSLSSVVTVPSSSLGTQTYICNVNHKPSNTKVDKRVEPKSCADCGFTSVSYQQGVLSATILYEILLGKATLYAVLVSALVLMAMVKRKDFYPYDVPDYA
notes: as for B1
Turning to B4, the binding result in assay [1] was “binds”.
